Measured values from patent US20050256058A1.
Numbered stars: 1 amine (or outer) side, 2 acyl side, 3 side chain; on linkers, the order of the positions; unused ones are H or OH. Square brackets hold non-standard residues; d marks the D form. * marks the point of attachment. AAsp = aza-Asp, O=C(N(CC(=O)[*:3])N[*:1])[*:2]; CH:CH‑COOEt = CCOC(=O)/C=C/*; CH═CH‑COOEt = CCOC(=O)/C=C/*; Cbz = O=C(OCc1ccccc1)*

T1: Caspase-10 (UniProt Q92851)
T1 sequence (looked up): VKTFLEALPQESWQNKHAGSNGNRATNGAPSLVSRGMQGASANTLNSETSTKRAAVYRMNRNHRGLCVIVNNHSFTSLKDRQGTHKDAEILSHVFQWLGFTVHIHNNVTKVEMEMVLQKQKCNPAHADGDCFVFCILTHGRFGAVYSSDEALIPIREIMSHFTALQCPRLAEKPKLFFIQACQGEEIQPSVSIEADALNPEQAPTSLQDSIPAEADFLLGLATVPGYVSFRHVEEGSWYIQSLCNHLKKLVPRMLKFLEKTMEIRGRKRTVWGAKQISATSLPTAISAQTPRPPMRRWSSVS

T2: Caspase-6 (UniProt P55212)
T2 sequence (looked up): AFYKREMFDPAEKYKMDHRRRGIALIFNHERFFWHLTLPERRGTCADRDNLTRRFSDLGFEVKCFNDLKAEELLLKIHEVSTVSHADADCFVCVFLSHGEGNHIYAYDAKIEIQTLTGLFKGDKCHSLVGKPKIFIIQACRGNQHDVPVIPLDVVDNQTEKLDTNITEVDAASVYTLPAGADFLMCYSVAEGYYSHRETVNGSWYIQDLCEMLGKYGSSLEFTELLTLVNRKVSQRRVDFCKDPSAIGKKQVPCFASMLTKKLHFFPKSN

T3: Caspase-7 (UniProt P55210)
T3 sequence (looked up): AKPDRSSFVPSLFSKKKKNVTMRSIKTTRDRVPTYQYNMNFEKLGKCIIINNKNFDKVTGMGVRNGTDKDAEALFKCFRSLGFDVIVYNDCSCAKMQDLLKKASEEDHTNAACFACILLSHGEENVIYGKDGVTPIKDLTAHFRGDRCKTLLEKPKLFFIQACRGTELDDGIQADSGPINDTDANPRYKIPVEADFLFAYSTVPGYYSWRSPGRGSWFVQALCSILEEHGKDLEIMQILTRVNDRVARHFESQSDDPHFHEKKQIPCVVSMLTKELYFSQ

T4: Caspase-3 (UniProt P42574)
T4 sequence (looked up): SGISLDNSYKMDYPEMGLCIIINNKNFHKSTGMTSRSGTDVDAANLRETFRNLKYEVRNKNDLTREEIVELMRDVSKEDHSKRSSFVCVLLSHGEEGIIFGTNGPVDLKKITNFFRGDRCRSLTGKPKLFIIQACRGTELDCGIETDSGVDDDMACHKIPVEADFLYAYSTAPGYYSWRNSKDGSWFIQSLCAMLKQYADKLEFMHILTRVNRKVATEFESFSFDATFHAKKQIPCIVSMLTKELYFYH

T5: Caspase-2 (UniProt P42575)
T5 sequence (looked up): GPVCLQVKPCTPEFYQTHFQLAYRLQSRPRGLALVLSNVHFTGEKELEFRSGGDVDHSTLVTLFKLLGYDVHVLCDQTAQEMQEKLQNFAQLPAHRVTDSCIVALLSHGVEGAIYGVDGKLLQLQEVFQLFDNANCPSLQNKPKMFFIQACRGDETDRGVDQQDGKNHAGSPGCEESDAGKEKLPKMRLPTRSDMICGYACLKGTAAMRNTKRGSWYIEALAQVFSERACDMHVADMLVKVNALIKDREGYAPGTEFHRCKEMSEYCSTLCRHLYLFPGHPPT

T6: Caspase-6, P55212
T6 chain: T2 sequence (looked up)

T7: Caspase-8, Q14790
T7 chain: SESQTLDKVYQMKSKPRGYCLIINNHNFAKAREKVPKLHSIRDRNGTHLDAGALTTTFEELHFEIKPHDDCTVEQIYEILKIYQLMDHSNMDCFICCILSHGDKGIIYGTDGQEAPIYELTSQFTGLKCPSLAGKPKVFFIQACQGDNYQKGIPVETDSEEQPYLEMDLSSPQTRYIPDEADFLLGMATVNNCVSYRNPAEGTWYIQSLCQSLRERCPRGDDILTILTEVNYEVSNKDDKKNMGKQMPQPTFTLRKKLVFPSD

T8: Caspase-3, P42574
T8 chain: T4 sequence (looked up)

T9: Caspase-9, P55211
T9 chain: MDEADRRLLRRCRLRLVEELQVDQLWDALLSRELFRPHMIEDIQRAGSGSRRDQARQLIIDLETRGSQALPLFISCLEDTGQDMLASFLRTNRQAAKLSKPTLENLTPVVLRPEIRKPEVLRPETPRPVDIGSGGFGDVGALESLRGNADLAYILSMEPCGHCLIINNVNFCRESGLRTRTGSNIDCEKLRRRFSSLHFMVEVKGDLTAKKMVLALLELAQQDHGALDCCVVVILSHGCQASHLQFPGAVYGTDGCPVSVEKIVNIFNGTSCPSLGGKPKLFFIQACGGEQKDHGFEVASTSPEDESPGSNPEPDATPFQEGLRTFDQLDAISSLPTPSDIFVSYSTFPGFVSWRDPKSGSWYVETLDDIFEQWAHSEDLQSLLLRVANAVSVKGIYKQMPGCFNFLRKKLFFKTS

T10: Caspase-10, Q92851
T10 chain: T1 sequence (looked up)

T11: Caspase-2, P42575
T11 chain: T5 sequence (looked up)

T12: calpain I from porcine erythrocytes (porcine), P35750
T12 chain: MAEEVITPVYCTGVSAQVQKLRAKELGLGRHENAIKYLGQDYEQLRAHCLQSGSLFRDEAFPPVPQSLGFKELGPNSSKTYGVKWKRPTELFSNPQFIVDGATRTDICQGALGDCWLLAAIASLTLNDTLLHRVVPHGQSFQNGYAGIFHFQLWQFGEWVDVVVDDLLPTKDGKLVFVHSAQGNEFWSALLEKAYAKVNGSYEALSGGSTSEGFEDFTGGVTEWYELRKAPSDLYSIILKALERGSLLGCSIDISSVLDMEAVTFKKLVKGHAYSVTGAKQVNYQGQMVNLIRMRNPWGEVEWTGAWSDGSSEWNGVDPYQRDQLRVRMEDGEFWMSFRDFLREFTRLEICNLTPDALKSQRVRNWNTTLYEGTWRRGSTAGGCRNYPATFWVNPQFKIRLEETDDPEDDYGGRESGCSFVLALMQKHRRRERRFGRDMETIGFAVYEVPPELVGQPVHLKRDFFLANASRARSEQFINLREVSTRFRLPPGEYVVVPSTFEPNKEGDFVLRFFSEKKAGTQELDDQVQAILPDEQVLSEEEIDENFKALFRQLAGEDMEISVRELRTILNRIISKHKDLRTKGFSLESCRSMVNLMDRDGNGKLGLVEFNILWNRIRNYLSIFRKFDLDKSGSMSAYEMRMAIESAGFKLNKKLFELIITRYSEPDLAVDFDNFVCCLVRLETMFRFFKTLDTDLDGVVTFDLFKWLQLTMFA

T13: Caspase-7, P55210
T13 chain: T3 sequence (looked up)

B1: Cbz-Val-Glu-Val-AAsp-CH═CH-COOEt (peptide)
peptide: Cbz-VEV[AAsp]-{CH:CH‑COOEt}
SMILES: CCOC(=O)/C=C/C(=O)N(CC(=O)O)NC(=O)[C@@H](NC(=O)[C@H](CCC(=O)O)NC(=O)[C@@H](NC(=O)OCc1ccccc1)C(C)C)C(C)C
B2: Cbz-Ile-Glu-Thr-AAsp-CH═CH-COOEt (peptide)
peptide: Cbz-IET[AAsp]-{CH═CH‑COOEt}
SMILES: CCOC(=O)/C=C/C(=O)N(CC(=O)O)NC(=O)[C@@H](NC(=O)[C@H](CCC(=O)O)NC(=O)[C@@H](NC(=O)OCc1ccccc1)[C@@H](C)CC)[C@@H](C)O

biological target: T1, Caspase-10; assay: cell-based or functional assay

Row | k2 [M⁻¹ s⁻¹] | Binder
1 | 6600 | B1
2 | 503 | Cbz-IET[AAsp]-{CH═CH‑CONHCH2Ph} [Cbz-Ile-Glu-Thr-AAsp-CH═CH-CONHCH2Ph]
3 | 6900 | B2

biological target: Caspase-8 (UniProt Q14790); assay: cell-based or functional assay

Row | k2 [M⁻¹ s⁻¹] | Binder
4 | 176000 | B1
5 | 61300 | Cbz-IET[AAsp]-{CH═CH‑CONHCH2Ph} [Cbz-Ile-Glu-Thr-AAsp-CH═CH-CONHCH2Ph]
6 | 56500 | B2

biological target: T2, Caspase-6; assay: cell-based or functional assay

Row | k2 [M⁻¹ s⁻¹] | Binder
7 | 83600 | B1
8 | 16800 | Cbz-IET[AAsp]-{CH═CH‑CONHCH2Ph} [Cbz-Ile-Glu-Thr-AAsp-CH═CH-CONHCH2Ph]
9 | 88700 | B2

biological target: T3, Caspase-7; assay: cell-based or functional assay

Row | k2 [M⁻¹ s⁻¹] | Binder
10 | 3650 | B1
11 | 100 | Cbz-IET[AAsp]-{CH═CH‑CONHCH2Ph} [Cbz-Ile-Glu-Thr-AAsp-CH═CH-CONHCH2Ph]
12 | 530 | B2

biological target: T4, Caspase-3; assay: cell-based or functional assay

Row | k2 [M⁻¹ s⁻¹] | Binder
13 | 41200 | B1
14 | 2250 | Cbz-IET[AAsp]-{CH═CH‑CONHCH2Ph} [Cbz-Ile-Glu-Thr-AAsp-CH═CH-CONHCH2Ph]
15 | 6740 | B2

biological target: Caspase-9 (UniProt P55211); assay: cell-based or functional assay

Row | k2 [M⁻¹ s⁻¹] | Binder
16 | 340 | B1
17 | 440 | Cbz-IET[AAsp]-{CH═CH‑CONHCH2Ph} [Cbz-Ile-Glu-Thr-AAsp-CH═CH-CONHCH2Ph]

biological target: T5, Caspase-2; assay: cell-based or functional assay

Row | k2 [M⁻¹ s⁻¹] | Binder
18 | 115 | B1
19 | 15 | Cbz-IET[AAsp]-{CH═CH‑CONHCH2Ph} [Cbz-Ile-Glu-Thr-AAsp-CH═CH-CONHCH2Ph]
20 | 300 | B2

Biological target: T6, Caspase-6, P55212
Assay: cell-based or functional assay

Row | k2 [M⁻¹ s⁻¹] | Binder
21 | 35600 | DEVD (modifications not checked) [Cbz-Asp-Glu-Val-AAsp-CH═CH-COOEt (trans)]
22 | 18700 | LETD (modifications not checked) [Cbz-Leu-Glu-Thr-AAsp-CH═CH-COOEt]
23 | 3210 | DEVD (modifications not checked) [Cbz-Asp-Glu-Val-AAsp-CH═CH-CONHCH2Ph]
24 | 8470 | DEVD (modifications not checked) [Cbz-Asp-Glu-Val-AAsp-CH═CH-COOCH2Ph]

Biological target: T7, Caspase-8, Q14790
Assay: cell-based or functional assay

Row | k2 [M⁻¹ s⁻¹] | Binder
25 | 273000 | DEVD (modifications not checked) [Cbz-Asp-Glu-Val-AAsp-CH═CH-COOEt (trans)]
26 | 237000 | LETD (modifications not checked) [Cbz-Leu-Glu-Thr-AAsp-CH═CH-COOEt]
27 | 78200 | DEVD (modifications not checked) [Cbz-Asp-Glu-Val-AAsp-CH═CH-CONHCH2Ph]
28 | 121000 | DEVD (modifications not checked) [Cbz-Asp-Glu-Val-AAsp-CH═CH-COOCH2Ph]

Biological target: T8, Caspase-3, P42574
Assay: cell-based or functional assay

Row | k2 [M⁻¹ s⁻¹] | Binder
29 | 2.13e+06 | DEVD (modifications not checked) [Cbz-Asp-Glu-Val-AAsp-CH═CH-COOEt (trans)]
30 | 5560 | LETD (modifications not checked) [Cbz-Leu-Glu-Thr-AAsp-CH═CH-COOEt]
31 | 1.75e+06 | DEVD (modifications not checked) [Cbz-Asp-Glu-Val-AAsp-CH═CH-CONHCH2Ph]
32 | 1.7e+06 | DEVD (modifications not checked) [Cbz-Asp-Glu-Val-AAsp-CH═CH-COOCH2Ph]

Biological target: T9, Caspase-9, P55211
Assay: cell-based or functional assay

Row | k2 [M⁻¹ s⁻¹] | Binder
33 | 37 | LETD (modifications not checked) [Cbz-Leu-Glu-Thr-AAsp-CH═CH-COOEt]
34 | 2010 | DEVD (modifications not checked) [Cbz-Asp-Glu-Val-AAsp-CH═CH-CONHCH2Ph]

Biological target: T10, Caspase-10, Q92851
Assay: cell-based or functional assay

Row | k2 [M⁻¹ s⁻¹] | Binder
35 | 49900 | DEVD (modifications not checked) [Cbz-Asp-Glu-Val-AAsp-CH═CH-COOEt (trans)]
36 | 19400 | DEVD (modifications not checked) [Cbz-Asp-Glu-Val-AAsp-CH═CH-CONHCH2Ph]
37 | 28300 | DEVD (modifications not checked) [Cbz-Asp-Glu-Val-AAsp-CH═CH-COOCH2Ph]

Biological target: T11, Caspase-2, P42575
Assay: cell-based or functional assay

Row | k2 [M⁻¹ s⁻¹] | Binder
38 | 2640 | DEVD (modifications not checked) [Cbz-Asp-Glu-Val-AAsp-CH═CH-COOEt (trans)]

Biological target: T12, calpain I from porcine erythrocytes …
Assay: cell-based or functional assay

Row | k2 [M⁻¹ s⁻¹] | Binder
39 | < 10 | LETD (modifications not checked) [Cbz-Leu-Glu-Thr-AAsp-CH═CH-COOEt]

biological target: Cathepsin B; assay: cell-based or functional assay

Row | k2 [M⁻¹ s⁻¹] | Binder
40 | < 10 | LETD (modifications not checked) [Cbz-Leu-Glu-Thr-AAsp-CH═CH-COOEt]

Biological target: T13, Caspase-7, P55210
Assay: cell-based or functional assay

Row | k2 [M⁻¹ s⁻¹] | Binder
41 | 239000 | DEVD (modifications not checked) [Cbz-Asp-Glu-Val-AAsp-CH═CH-COOEt (trans)]
42 | 249000 | DEVD (modifications not checked) [Cbz-Asp-Glu-Val-AAsp-CH═CH-CONHCH2Ph]
43 | 114000 | DEVD (modifications not checked) [Cbz-Asp-Glu-Val-AAsp-CH═CH-COOCH2Ph]
